These results are taken from patent US20060292140A1 (published 2006).

The target of assay [1] is T1, human α4β7 integrin (human, UniProt P13612 34-1032; P26010 20-798).
T1 construct: whole, on cells; also called α4β7 integrin on HuT 78 cells; on RPMI 8866 cells
Kind of assay: flow cytometry on HuT 78 cells, transient COS-7 expression.

The target in assay [2] is T1, human α4β7 integrin. In words: flow cytometry competition on HuT 78 cells; competitor biotinylated murine Act-1 held constant; experiment 4, lot 2. The procedure: (§1) Unless otherwise indicated, all reagents were diluted in 0.15 M PBS/1.0% FCS/0.1% sodium azide. The varying concentrations for both antibodies ranged in half-log increments from 2.0×10⁻⁶M to 5.0×10⁻¹¹M. After removal of the primary antibodies, the cells were then suspended in 100 μl streptavidin phycoerythrin (Dako Corp., Carpinteria, Calif.) diluted 1:200. After washing in 200 μl PBS, cells were resuspended in 0.5 ml of PBS/1% formalin and refrigerated until analyzed. Samples were analyzed on a FACScan (Becton Dickinson Corp., San Jose, Calif.) using a 488 nm laser to excite phycoerythrin. For each sample, a minimum of 10,000 cells was analyzed and MCF calculated. All samples were performed in duplicate. The IC₅₀ was determined as the concentration of unconjugated antibody producing a 50% reduction in the MCF from the biotinylated homologue antibody.

In assay [3] the target is T1, human α4β7 integrin. Kind of assay: flow cytometry titration of biotinylated antibody on HuT 78 cells, half-maximal mean channel fluorescence. The procedure:
Unless otherwise indicated, all reagents were diluted in 0.15 M PBS/1.0% FCS/0.1% sodium azide. […] After washing in 200 μl PBS, cells were resuspended in 0.5 ml of PBS/1% formalin and refrigerated until analyzed. Samples were analyzed on a FACScan (Becton Dickinson Corp., San Jose, Calif.) using a 488 nm laser to excite phycoerythrin. […] All samples were performed in duplicate.

In assay [4] the target is T1, human α4β7 integrin. Kind of assay: flow cytometry competition on HuT 78 cells; competitor biotinylated murine Act-1 held constant; experiment 5, lot 2. The procedure:
as §1

In assay [5] the target is T1, human α4β7 integrin. Kind of assay: cell-based or functional assay.
Assay [6] deals with T1, human α4β7 integrin. Kind of assay: flow cytometry competition on HuT 78 cells; competitor biotinylated murine Act-1 held constant; mean of 5 experiments. The procedure: as §1
Assay [7] concerns the target T1, human α4β7 integrin. Kind of assay: flow cytometry competition on HuT 78 cells; competitor biotinylated murine Act-1 held constant; experiment 2, lot 2. The method, then: as §1
Assay [8] has as its target T1, human α4β7 integrin. In words: flow cytometry competition on HuT 78 cells; competitor biotinylated murine Act-1 held constant; experiment 1, lot 2. The method, then:
as §1

Assay [9] concerns the target T1, human α4β7 integrin. Kind of assay: flow cytometry competition on HuT 78 cells; competitor biotinylated murine Act-1 held constant; experiment 3, lot 2. The method, then: as §1
Assay [10] addresses T1, human α4β7 integrin. Kind of assay: flow cytometry competition on HuT 78 cells; competitor biotinylated LDP-02/3A9/Lot#1 held constant. The procedure: as §1

B1: derivative of LDP-02 (Fc-mutated) having a mutation in the light chain (MV4) plus a double mutation in the heavy chain (R38K, A40R) (antibody, human IgG1, V domains shown)
VH: QVQLVQSGAEVKKPGASVKVSCKGSGYTFTSYWMHWVKQRPGQRLEWIGEIDPSESNTNYNQKFKGRVTLTVDISASTAYMELSSLRSEDTAVYYCARGGYDGWDYAIDYWGQGTLVTVSS
VL: DVVVTQSPLSLPVTPGEPASISCRSSQSLAKSYGNTYLSWYLQKPGQSPQLLIYGISNRFSGVPDRFSGSGSGTDFTLKISRVEAEDVGVYYCLQGTHQPYTFGQGTKVEIK
notes: transient COS-7 expression; also called M4V / R38K, A40R derivative
Turning to B1, the binding result in assay [1] is reported as “binds”.

B2: murine Act-1 monoclonal antibody (antibody, mouse IgG1, V domains shown)
VH: QVQLQQPGAELVKPGTSVKLSCKGYGYTFTSYWMHWVKQRPGQGLEWIGEIDPSESNTNYNQKFKGKATLTVDISSSTAYMQLSSLTSEDSAVYYCARGGYDGWDYAIDYWGQGTSVTVSS
VL: DVVVTQTPLSLPVSFGDQVSISCRSSQSLAKSYGNTYLSWYLHKPGQSPQLLIYGISNRFSGVPDRFSGSGSGTDFTLKISTIKPEDLGMYYCLQGTHQPYTFGGGTKLEIK
notes: Mouse IgG1/kappa from the Act-1 hybridoma; also called mouse Act-1; ACT-1 (murine)
Take B2: the half-inhibitory concentration (IC50) in assay [2] was found to be 4.91 nM; in assay [4], 10.2 nM; in [6], 7.94 nM; in [7] it was 10.9 nM; in assay [8], 7.57 nM; in assay [9], 6.02 nM. In addition, the half-inhibitory concentration (IC50) in assay [10] was 6.3 nM. The same molecule yielded a 50% effective concentration (EC50) in assay [3] of 0.1 µg/mL. The “IC50: concentration which inhibited by 50% the adhesion of RPMI 8866 cells to human MAdCAM-1-Ig chimera” value in assay [5] turned out to be 0.0018 µg/mL.
